Reference: patent US10500249B2, “Compositions and methods for preventing or treating diseases, conditions, or processes characterized by aberrant fibroblast proliferation and extracellular matrix deposition” (MOERAE MATRIX, INC., priority 2014, dated 2019)

Assays:
Assay in all cases: Kinase Profiling Assay
Format in all cases: biochemical
Conditions in all cases: 100 μM
CK1γ3 (h) = target: T1, CK1γ3 (h) (Homo sapiens, UniProt Q9Y6M4)
T1 construct: purchased Millipore
Summary of the method: (§1)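 Radiometric filter-binding format: cationic substrate takes up labeled phosphate from ATP unless the inhibitor peptide blocks the kinase. Substrate bound to an anionic filter, scintillation-counted, normalized to 100% activity control. Duplicates; part of a 266-kinase selectivity panel for MK2 peptides.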

CK2α2 (h) = target: T2, CK2α2 (h) (Homo sapiens, UniProt P19784)
T2 construct: purchased Millipore
Summary of the method: as §1

GRK5 (h) = target: T3, GRK5 (h) (Homo sapiens, UniProt P34947)
T3 construct: purchased Millipore
Summary of the method: as §1

IGF-1R (h) = target: T4, IGF-1R (h) (Homo sapiens, UniProt P08069)
T4 construct: purchased Millipore
Summary of the method: as §1

MAPK1 (h) = MAPK1 (h) (Homo sapiens, UniProt P27361)
Summary of the method: as §1

PAR-1Bα (h) = target: T5, PAR-1Bα (h) (Homo sapiens, UniProt Q7KZI7)
T5 construct: purchased Millipore
Summary of the method: as §1

PKA (h) = target: T6, PKA (h) (Homo sapiens, UniProt P17612)
T6 construct: purchased Millipore
Summary of the method: as §1

Abl (H396P) (h) = Abl (H396P) (h) (Homo sapiens, UniProt P00519, H396P)
Summary of the method: as §1

Aurora-A (h) = target: T7, Aurora-A (h) (Homo sapiens, UniProt O14965)
T7 sequence (O14965 1-403): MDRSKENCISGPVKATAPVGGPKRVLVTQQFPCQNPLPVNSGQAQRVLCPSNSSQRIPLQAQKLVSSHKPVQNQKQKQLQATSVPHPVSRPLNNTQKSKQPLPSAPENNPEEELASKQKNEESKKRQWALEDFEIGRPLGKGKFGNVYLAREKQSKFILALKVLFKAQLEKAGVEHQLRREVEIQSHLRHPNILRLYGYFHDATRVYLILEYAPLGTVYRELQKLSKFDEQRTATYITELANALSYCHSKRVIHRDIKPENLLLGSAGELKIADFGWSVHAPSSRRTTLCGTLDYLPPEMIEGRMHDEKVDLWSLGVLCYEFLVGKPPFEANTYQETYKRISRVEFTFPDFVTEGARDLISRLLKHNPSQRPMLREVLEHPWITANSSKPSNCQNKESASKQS
Summary of the method: as §1

EGFR(T790M) (h) = target: T8, EGFR(T790M) (h) (Homo sapiens, UniProt P00533, T790M)
T8 construct: purchased Millipore
Summary of the method: as §1

HIPK3 (h) = target: T9, HIPK3 (h) (Homo sapiens, UniProt Q9H422)
T9 construct: purchased Millipore
Summary of the method: as §1

JAK3 (h) = target: T10, JAK3 (h) (Homo sapiens, UniProt P52333)
T10 construct: purchased Millipore
T10 sequence (P52333 1-1124): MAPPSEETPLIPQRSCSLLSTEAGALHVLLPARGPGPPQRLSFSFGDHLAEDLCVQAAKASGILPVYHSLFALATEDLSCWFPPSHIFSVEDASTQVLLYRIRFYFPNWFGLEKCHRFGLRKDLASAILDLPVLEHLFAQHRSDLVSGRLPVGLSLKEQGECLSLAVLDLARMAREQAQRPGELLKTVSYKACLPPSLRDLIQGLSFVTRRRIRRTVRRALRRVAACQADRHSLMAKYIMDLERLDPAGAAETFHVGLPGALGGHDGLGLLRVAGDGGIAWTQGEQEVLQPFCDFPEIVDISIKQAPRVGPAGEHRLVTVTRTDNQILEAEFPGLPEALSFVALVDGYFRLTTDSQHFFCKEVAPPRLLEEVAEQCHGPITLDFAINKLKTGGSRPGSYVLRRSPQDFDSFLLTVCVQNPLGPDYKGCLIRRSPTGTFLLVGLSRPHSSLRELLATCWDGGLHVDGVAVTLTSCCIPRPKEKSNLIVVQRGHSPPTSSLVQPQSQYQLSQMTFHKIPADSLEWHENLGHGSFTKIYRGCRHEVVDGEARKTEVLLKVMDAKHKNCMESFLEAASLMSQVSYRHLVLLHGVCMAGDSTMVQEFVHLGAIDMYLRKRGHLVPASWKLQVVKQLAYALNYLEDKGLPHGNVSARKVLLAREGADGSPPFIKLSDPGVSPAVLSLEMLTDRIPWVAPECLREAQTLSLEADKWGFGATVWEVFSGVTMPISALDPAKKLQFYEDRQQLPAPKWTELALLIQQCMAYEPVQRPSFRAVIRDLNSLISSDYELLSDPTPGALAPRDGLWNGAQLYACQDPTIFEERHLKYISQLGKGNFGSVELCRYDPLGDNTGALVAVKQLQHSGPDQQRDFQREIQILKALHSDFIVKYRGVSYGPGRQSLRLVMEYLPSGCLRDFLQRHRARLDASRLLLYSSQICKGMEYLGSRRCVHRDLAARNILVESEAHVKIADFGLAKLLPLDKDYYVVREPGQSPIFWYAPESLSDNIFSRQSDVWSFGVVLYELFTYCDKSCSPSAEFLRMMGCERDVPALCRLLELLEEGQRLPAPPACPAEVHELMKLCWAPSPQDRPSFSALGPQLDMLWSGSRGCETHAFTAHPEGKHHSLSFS
Summary of the method: as §1

Lck (h) = Lck (h) (Homo sapiens, UniProt P06239)
Summary of the method: as §1

MRCKα (h) = target: T11, MRCKα (h) (Homo sapiens, UniProt Q5VT25)
T11 construct: purchased Millipore
Summary of the method: as §1

PDGFRα (D842V) (h) = target: T12, PDGFRα (D842V) (h) (Homo sapiens, UniProt P16234, D842V)
T12 construct: purchased Millipore
Summary of the method: as §1

Snk (h) = Snk (h) (Homo sapiens, UniProt Q9NYY3)
Summary of the method: as §1

cKit(V560G) (h) = target: T13, cKit(V560G) (h) (Homo sapiens, UniProt P10721, V560G)
T13 construct: purchased Millipore
Summary of the method: as §1

JNK1α1 (h) = JNK1α1 (h) (Homo sapiens, UniProt P45983)
Summary of the method: as §1

T3 sequence (P34947 whole entry): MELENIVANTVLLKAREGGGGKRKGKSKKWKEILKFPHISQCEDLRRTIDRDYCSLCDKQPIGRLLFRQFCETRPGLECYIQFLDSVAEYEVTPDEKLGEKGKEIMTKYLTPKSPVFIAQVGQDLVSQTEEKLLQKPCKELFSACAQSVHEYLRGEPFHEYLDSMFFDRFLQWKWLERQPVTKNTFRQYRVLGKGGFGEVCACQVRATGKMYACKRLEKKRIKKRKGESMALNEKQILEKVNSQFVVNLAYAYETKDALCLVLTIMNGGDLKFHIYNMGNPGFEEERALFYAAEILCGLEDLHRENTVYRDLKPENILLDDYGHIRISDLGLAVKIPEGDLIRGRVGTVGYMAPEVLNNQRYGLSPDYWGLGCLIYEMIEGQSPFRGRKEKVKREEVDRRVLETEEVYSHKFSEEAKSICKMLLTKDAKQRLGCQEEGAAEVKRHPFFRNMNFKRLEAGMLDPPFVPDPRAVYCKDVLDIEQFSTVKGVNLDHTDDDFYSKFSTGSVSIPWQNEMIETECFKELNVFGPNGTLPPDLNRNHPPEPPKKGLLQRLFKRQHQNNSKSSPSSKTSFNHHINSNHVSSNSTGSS
T1 sequence (Q9Y6M4 whole entry): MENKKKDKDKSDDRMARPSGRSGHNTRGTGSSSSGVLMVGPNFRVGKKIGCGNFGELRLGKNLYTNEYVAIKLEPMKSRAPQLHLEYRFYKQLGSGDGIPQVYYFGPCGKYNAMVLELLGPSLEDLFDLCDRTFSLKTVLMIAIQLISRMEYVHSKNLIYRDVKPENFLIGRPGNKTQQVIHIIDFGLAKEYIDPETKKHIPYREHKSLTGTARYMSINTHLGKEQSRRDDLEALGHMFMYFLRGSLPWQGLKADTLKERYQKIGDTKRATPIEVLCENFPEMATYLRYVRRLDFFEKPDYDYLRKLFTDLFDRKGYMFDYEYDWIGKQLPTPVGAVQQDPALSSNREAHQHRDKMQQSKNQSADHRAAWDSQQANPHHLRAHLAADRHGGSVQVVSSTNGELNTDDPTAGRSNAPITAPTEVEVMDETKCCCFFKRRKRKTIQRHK
T12 sequence (P16234 24-1089 D842V): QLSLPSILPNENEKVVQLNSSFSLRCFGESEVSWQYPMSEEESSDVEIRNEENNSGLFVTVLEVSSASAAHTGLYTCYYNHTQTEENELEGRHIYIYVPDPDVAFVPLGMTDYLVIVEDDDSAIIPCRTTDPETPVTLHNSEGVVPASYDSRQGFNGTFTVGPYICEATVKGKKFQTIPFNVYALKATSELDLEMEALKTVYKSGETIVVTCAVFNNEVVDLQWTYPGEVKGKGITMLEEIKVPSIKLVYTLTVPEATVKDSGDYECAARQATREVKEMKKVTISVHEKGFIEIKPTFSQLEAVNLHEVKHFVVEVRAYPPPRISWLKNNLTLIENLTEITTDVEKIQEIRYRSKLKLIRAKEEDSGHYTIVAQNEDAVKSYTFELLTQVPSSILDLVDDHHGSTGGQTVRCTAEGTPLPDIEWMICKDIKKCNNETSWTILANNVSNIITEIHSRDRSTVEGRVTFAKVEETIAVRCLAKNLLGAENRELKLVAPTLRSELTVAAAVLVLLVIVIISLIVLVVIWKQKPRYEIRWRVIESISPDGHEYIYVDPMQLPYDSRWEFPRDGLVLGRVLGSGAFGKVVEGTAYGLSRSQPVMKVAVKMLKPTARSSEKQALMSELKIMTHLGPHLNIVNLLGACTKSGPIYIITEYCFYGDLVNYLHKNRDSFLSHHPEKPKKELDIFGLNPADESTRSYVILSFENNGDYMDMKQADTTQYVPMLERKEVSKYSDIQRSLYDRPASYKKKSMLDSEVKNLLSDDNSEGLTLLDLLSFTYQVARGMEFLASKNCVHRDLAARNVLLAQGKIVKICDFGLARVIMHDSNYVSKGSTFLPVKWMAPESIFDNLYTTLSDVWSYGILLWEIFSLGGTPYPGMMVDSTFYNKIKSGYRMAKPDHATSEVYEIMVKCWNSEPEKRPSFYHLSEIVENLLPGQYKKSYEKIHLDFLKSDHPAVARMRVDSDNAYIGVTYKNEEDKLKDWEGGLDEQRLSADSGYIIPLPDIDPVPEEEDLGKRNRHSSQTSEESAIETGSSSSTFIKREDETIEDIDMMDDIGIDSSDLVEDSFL
Sequence of Lck (h) (P06239 whole entry): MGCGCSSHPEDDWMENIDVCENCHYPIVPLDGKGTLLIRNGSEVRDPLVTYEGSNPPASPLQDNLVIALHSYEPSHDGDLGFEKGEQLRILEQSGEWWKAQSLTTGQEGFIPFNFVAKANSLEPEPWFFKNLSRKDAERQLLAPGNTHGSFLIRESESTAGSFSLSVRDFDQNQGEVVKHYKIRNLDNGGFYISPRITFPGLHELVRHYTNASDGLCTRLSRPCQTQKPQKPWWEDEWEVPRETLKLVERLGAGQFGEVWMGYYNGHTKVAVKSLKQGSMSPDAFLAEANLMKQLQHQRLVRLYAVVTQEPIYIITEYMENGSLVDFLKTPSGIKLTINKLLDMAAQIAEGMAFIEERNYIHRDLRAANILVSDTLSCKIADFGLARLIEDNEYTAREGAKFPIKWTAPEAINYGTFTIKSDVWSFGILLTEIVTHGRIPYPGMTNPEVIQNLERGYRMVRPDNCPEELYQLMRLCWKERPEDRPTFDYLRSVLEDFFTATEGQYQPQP
Sequence of JNK1α1 (h) (P45983 1-384 isoform P45983-2): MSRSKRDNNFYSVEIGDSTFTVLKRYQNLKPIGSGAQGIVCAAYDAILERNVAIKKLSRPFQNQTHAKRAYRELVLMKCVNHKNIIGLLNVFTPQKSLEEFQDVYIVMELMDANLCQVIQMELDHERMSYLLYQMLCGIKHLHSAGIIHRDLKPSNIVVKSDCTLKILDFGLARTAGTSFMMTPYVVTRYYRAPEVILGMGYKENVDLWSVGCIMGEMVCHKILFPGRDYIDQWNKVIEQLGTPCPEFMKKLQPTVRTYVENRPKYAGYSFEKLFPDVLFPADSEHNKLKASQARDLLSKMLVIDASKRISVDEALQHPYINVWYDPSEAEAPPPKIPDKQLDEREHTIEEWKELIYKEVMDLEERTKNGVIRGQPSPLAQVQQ
T5 sequence (Q7KZI7 1-725 isoform Q7KZI7-4): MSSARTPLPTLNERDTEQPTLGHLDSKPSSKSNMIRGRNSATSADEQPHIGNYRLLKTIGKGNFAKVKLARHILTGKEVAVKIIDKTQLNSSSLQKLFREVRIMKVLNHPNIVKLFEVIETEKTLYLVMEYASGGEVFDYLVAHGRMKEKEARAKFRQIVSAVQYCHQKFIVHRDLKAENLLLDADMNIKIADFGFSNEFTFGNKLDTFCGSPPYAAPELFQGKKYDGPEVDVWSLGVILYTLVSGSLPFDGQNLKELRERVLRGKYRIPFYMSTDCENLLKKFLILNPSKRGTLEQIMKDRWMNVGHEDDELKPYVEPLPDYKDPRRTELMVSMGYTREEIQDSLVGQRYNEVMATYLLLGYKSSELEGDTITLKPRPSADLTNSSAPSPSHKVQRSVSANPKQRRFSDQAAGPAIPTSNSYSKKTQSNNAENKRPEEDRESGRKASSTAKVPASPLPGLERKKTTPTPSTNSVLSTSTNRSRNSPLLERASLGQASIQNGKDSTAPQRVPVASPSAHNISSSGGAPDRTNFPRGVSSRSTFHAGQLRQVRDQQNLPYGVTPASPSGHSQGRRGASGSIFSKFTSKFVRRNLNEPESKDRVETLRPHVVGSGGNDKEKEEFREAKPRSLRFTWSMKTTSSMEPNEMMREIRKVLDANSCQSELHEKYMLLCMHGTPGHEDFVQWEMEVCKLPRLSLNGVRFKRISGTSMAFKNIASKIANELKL
T2 sequence (P19784 whole entry): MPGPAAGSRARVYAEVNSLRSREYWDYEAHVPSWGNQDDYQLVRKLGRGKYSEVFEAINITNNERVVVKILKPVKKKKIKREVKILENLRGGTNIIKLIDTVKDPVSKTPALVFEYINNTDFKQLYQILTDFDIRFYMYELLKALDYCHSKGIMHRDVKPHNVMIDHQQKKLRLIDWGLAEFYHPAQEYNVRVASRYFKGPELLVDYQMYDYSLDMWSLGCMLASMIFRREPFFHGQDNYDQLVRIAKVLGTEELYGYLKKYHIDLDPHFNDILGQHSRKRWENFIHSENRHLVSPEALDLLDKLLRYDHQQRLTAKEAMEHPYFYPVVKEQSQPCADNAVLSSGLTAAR
Sequence of MAPK1 (h) (P27361 whole entry): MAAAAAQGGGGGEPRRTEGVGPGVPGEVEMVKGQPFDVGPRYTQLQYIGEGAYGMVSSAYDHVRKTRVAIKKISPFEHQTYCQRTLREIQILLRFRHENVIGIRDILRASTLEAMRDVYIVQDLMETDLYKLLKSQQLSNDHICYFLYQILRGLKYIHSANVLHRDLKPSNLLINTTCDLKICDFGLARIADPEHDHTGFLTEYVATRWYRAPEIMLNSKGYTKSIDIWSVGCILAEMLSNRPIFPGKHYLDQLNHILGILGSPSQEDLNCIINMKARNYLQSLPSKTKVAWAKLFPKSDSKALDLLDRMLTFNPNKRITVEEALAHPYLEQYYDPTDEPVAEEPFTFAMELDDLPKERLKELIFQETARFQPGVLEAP

| Sequence | % activity (CK1γ3 (h)) | % activity (CK2α2 (h)) | % activity (GRK5 (h)) | % activity (IGF-1R (h)) | % activity (MAPK1 (h)) | % activity (PAR-1Bα (h)) | % activity (PKA (h)) | % activity (Abl (H396P) (h)) | % activity (Aurora-A (h)) | % activity (EGFR(T790M) (h)) | % activity (HIPK3 (h)) | % activity (JAK3 (h)) | % activity (Lck (h)) | % activity (MRCKα (h)) | % activity (PDGFRα (D842V) (h)) | % activity (Snk (h)) | % activity (cKit(V560G) (h)) | % activity (JNK1α1 (h)) |
| --- | --- | --- | --- | --- | --- | --- | --- | --- | --- | --- | --- | --- | --- | --- | --- | --- | --- | --- |
| YARAAARQARAKALNRQLGVA (Mammalian) [MMI-0200] | 96% | 88% | 135% | 49% | 97% | 110% | 110% | – | – | – | – | – | – | – | – | – | – | – |
| HRRIKAWLKKIKALARQLGVAA (Mammalian) [MMI-0500] | – | – | – | – | – | 97% | 118% | 51% | 110% | 70% | 85% | 95% | 359% | 5% | 170% | 122% | 198% | – |
| FAKLAARLYRKALARQLGVAA [MMI-0300] | 125% | – | – | – | – | – | – | 101% | 92% | 100% | 93% | – | −2% | – | – | – | – | 97% |
| KAFAKLAARLYRKALARQLGVAA [MMI-0400] | – | 96% | 131% | 90% | 100% | – | – | – | – | – | – | 122% | – | 97% | 118% | 131% | 124% | 98% |
